Reference: PMC5463365, “Assembly and use of high-density recombinant peptide chips for large-scale ligand screening is a practical alternative to synthetic peptide libraries” (BMC Genomics, 2017)

How the values were obtained:
[1] = target: 5'FAM-labeled F14.5 peptide; assay: fluorescence polarisation; 20 nM 5'FAM-labeled peptide with rising concentrations of Streptavidin/StrepTactin, triplicates; ES2 buffer (100 mM potassium phosphate pH 7.4, 100 μg/ml bovine γ globulin, 0.02% NaN3); at least 2 h at RT or o/n at 4 °C
[2] = target: 5'FAM-labeled Strep-tag II peptide; assay: as above

- Kd [1]: 44.3 µM
- Kd [2]: 0.43 µM
Substance: Recombinant StrepTactin, unconjugated
